Results from patent US20140099312A1.
Each block holds one binder with its values, some of them ahead of it.

Key:
[1] = biological target: Human PCSK9-myc-myc-his (human) (UniProt Q8NBP7); assay: SPR, mAb captured on anti-mouse IgG, 37C
[2] = biological target: Chimeric protein #1 (mPro-hCat-mC-term-mmh) (mouse; human) (UniProt Q80W65); assay: ELISA, coated mAb, 1.2 nM antigen
[3] = biological target: Chimeric protein #2 (hPro-mCat-mC-term-mmh) (human; mouse) (UniProt Q80W65); assay: ELISA, coated mAb, 1.2 nM antigen
mouse PCSK9-mmh (mouse) = mouse PCSK9-mmh (mouse) (UniProt Q80W65); assay: ELISA, coated mAb, 1.2 nM antigen
[4] = biological target: Human PCSK9-myc-myc-his (human) (UniProt Q8NBP7); assay: SPR, mAb captured on anti-mouse IgG, 25C
[5] = biological target: hPCSK9(D374Y)-mmh (human) (UniProt Q8NBP7); assay: ELISA, coated mAb, 1.2 nM antigen (++ OD>1.0; + OD 0.4-1.0)
[6] = biological target: Human PCSK9-myc-myc-his (human) (UniProt Q8NBP7); assay: as above
[7] = biological target: Chimeric protein #3 (mPro-mCat-hC-term-mmh) (mouse; human); assay: as above

Kd [1]: 7.5 nM
T1/2 [1]: 19 min
OD [2]: < 0.4 od
OD [3]: < 0.4 od
OD (mouse PCSK9-mmh (mouse)): < 0.4 od
Kd [4]: 0.44 nM
T1/2 [4]: 222 min
OD [5]: > 1 od
OD [6]: > 1 od
OD [7]: > 1 od
B1: H1M495 (antibody, from a related filing, V domains shown)
VH: EVQLVESGGGLVQPGRSLRLSCAASGFTFDDYAMHWVRQAPGKGLEWVSGINWNSGSIGYADSVKGRFTISRDNAKHSLYLQMNSLRPEDTALYYCVKEVTTGYYYGMDVWGQGTTVTVSS
VL: DIQLTQSPSFLSASVGDRVTITCWASQGISSYLAWYQKKPGKAPNLLIYDASTLQSGVPSRFSGSGSGTEFTLTLSSLQPEDFATYYCQQLNIYPFTFGPGTKVDIK

Kd [1]: 7.5 nM
T1/2 [1]: 14 min
OD [2]: < 0.4 od
OD [3]: < 0.4 od
OD (mouse PCSK9-mmh (mouse)): < 0.4 od
Kd [4]: 6.4 nM
T1/2 [4]: 30 min
OD [5]: > 1 od
OD [6]: > 1 od
OD [7]: 0.4 to 1 od
B2: H1M498 (antibody, from a related filing, V domains shown)
VH: EVQLVESGGGLVKPGGSLRLSCAASGFTFSSYSMDWVRQAPGKGLEWVSSISSSSSYIYYADSVKGRFTISRDTAKNSLYLQMNSLRDEDTAVYYCAREGSSRLFDYWGQGTLVTVSS
VL: DIQMTQSPSTLSASVGDRVTITCRASQSISSWLAWYQQRPGKAPKLLIYKASSLEGGVPSRFSGSGSGTEFTLTISSLQPEDFATYYCQQYNSYWYTFGQGTKLEIK
